Assay results published in article PMC2814945 (Peptides, 2009).

T1: HA-tagged human Neuropeptide S receptor, D105A mutant in the N107 background (human, UniProt Q6W5P4 1-371, D105A)
T1 sequence (looked up): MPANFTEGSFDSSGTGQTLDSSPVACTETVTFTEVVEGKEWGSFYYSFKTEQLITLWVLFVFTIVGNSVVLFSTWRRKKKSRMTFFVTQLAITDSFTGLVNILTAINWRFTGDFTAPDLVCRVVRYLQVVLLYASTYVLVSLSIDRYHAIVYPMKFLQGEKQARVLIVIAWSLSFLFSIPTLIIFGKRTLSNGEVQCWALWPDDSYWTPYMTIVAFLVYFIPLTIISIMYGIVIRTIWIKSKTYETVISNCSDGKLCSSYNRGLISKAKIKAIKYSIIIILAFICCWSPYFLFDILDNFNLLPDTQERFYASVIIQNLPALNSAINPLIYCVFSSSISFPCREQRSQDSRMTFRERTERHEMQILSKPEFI

T2: HA-tagged human Neuropeptide S receptor, N107 variant (human, UniProt Q6W5P4 1-371)
T2 sequence (looked up): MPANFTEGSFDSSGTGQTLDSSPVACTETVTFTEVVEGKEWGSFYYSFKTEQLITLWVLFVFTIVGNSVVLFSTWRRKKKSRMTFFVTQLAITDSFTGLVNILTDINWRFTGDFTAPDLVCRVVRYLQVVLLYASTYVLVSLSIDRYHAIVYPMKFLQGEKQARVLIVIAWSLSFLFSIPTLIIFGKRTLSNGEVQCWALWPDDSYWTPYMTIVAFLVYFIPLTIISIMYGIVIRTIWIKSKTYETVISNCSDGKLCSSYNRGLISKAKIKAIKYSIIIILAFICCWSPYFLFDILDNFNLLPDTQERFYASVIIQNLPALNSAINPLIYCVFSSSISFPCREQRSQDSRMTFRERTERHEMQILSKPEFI

T3: HA-tagged human Neuropeptide S receptor, N101A mutant in the N107 background (human, UniProt Q6W5P4 1-371, N101A)
T3 sequence (looked up): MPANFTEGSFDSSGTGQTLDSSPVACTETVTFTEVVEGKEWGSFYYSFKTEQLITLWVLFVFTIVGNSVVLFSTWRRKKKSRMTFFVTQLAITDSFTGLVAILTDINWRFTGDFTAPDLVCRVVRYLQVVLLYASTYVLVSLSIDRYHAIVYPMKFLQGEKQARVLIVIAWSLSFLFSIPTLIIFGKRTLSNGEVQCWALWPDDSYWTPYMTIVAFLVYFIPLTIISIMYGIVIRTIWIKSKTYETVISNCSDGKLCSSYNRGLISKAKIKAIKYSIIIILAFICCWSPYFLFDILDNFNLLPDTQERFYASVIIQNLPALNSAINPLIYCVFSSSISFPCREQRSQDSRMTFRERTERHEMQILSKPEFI

T4: HA-tagged human Neuropeptide S receptor, I107 variant (human, UniProt Q6W5P4 1-371, N107I)
T4 sequence (looked up): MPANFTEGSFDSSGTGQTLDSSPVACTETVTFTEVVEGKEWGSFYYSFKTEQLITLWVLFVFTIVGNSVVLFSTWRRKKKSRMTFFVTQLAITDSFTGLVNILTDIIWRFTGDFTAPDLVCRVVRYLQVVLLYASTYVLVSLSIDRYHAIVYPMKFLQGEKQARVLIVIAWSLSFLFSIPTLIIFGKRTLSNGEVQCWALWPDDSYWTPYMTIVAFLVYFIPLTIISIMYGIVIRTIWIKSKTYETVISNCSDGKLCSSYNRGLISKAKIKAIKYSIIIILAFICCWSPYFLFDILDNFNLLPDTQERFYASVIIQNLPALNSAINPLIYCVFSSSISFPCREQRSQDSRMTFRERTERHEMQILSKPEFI


Columns and labels:
[1] = molecular target: HA-tagged human Neuropeptide S receptor, D105A mutant in the N107 background (human) (UniProt Q6W5P4)
[2] = molecular target: T1, HA-tagged human Neuropeptide S …; test: radioligand binding
[3] = molecular target: T2, HA-tagged human Neuropeptide S …; test: radioligand binding
[4] = molecular target: T3, HA-tagged human Neuropeptide S …; test: cell-based or functional assay
[5] = molecular target: T1, HA-tagged human Neuropeptide S …; test: cell-based or functional assay
[6] = molecular target: T2, HA-tagged human Neuropeptide S …; test: cell-based or functional assay
[7] = molecular target: T4, HA-tagged human Neuropeptide S …; test: cell-based or functional assay

EC50 of receptor activation by human NPS 1-18 (unpublished data) [1] | IC50 [2] | IC50 [3] | EC50 of NPS-mediated mobilisation of intracellular Ca2+ (FLIPR), stable clone #2 [4] | EC50 of NPS-mediated mobilisation of intracellular Ca2+ (FLIPR), stable clone #6 [4] | EC50 of receptor activation by human NPS 1-20 (unpublished data) [5] | EC50 of NPS-mediated mobilisation of intracellular Ca2+ (FLIPR), stable clone #2 [6] | EC50 of NPS-mediated mobilisation of intracellular Ca2+ (FLIPR), stable clone #4 [6] | EC50 of NPS-mediated mobilisation of intracellular Ca2+ (FLIPR), stable clone #4 [7] | EC50 of NPS-mediated mobilisation of intracellular Ca2+ (FLIPR), stable clone #5 [7] | Molecule
1000 nM |  |  |  |  |  |  |  |  |  | human NPS 1-18 (peptide)
 | > 200 nM | 8.7 ± 1.9 nM | 12 nM | 42 nM | ~1000 nM | 25 nM | 4.9 nM | 1.6 nM | 1.7 nM | SFRNGVGTGMKKTSFQRAKS (peptide, UniProt P0C0P6 70-89, looked up) [Neuropeptide S (human)]
